B1: Ycs4 (natural protein, S. cerevisiae)
chain: MSGFSLSEYLTKFQTTDRESYPRLQDPSRELNVIIDQLAVSPEQIDASPDSLEALIDLCHDFPHLTPKLQTQLSYLISSSLSNLSKDIKANLSSNVNFTEIGGLIPQWKRHLEEYGYLIQVLLTFLQDELHKVSSQSTNLNRSAKNSKNDSANVELFKRDCNQMENLLESITKLLEINLSKIFQTTPEKDLFIGLFTRPLFVLLEIEPVTKVSSLKMFIQRILAMCVKNHGQSSSIQSSLMTNLTYFLHLSVFNAELLKLLNDEYNYPQLTEDILKEISTRVFNAKDTTGPKAISNFLIKLSELSPGIMLRQMNLVITLLNNSSITLRCSVVEACGNIVAELAQDPQTMEHYKQQIAVLIELLEERFQDSNPYVRTKAIQGCSKICDLSSKFNKSKAKFTSLAVRSLQDRSSLVRRNSVKLLSKLLLKHPFKAIHGSQLRLSEWEEYLKGSESQLNSTLKKVESQETLNDTIERSLIEEEVEQDEGQCRTELEGSFNKSAELSRIENEVENINATNTSVLMKLKLMIVYYKDAISFIKEIHKSIELISNLLFSKNRNEVLESMDFLVLADAFDIELSEFGIKKMLHLVWMKGTNDEGTSISVHLIECYKQLFLTAPDSCNMQEKAAHIAKNLINLSIGASIADLASLEQLLGMMYEQKLIDQHVINILWAIYNSASKASMQKEQNVNNRDSEKGFSKEQIHGSIIILGMLSLADNEIALKGLESLLNIGLGAVGLKDLTLCRYSCLALERMVPKRSTIITKAINQELEDVAVKKLYAIIINYTKDNEYYPMCEQALSALFTISSKPDILATDLIREKTMMTFGKPEEEDSILSLEQSSRVVSLSQLLFIVGQVAIKTLVYLEKCEAEFKKRKIEAETRNGKVKNQGADVTNTTQDNGGDKELEMIGGTNEDDFTDAIQFVKENELLFGEKSILGKFCPIVEEIVSNSSRFSDPMLQRTATLCLEKLMCLSSKYCEKSLPLLITVMEKSPDPTIRSNAVLGLGDMAVCFNNLVDENTDYLYRRLHDENLMVQRTCLMTVTFLILAGQVKVKGQLGEMAKCLDNPDQGISDMCRLFFTELASKDNAIYNGFIDIFSNLSSDDLLGKESFKKIIKFLLTFIDKERHQKQLNEKLVGRLRKCETQKQWDDIAFVLNNLPYKNEDVTALLEQGFKVVSAKE
notes: Ycs4, HAWK (HEAT repeat) subunit of S. cerevisiae condensin
B2: Smc2 (natural protein, budding yeast (S. cerevisiae))
chain: MKVEELIIDGFKSYATRTVITDWDPQFNAITGLNGSGKSNILDAICFVLGIASMSTVRASSLQDLIYKRGQAGVTKASVTIVFDNTDKSNSPIGFTNSPQISVTRQVVLGGTSKYLINGHRAPQQSVLQLFQSVQLNINNPNFLIMQGKITKVLNMKPSEILSLIEEAAGTKMFEDRREKAERTMSKKETKLQENRTLLTEEIEPKLEKLRNEKRMFLEFQSTQTDLEKTERIVVSYEYYNIKHKHTSIRETLENGETRMKMLNEFVKKTSEEIDSLNEDVEEIKLQKEKELHKEGTISKLENKENGLLNEISRLKTSLSIKVENLNDTTEKSKALESEIASSSAKLIEKKSAYANTEKDYKMVQEQLSKQRDLYKRKEELVSTLTTGISSTGAADGGYNAQLAKAKTELNEVSLAIKKSSMKMELLKKELLTIEPKLKEATKDNELNVKHVKQCQETCDKLRARLVEYGFDPSRIKDLKQREDKLKSHYYQTCKNSEYLKRRVTNLEFNYTKPYPNFEASFVHGVVGQLFQIDNDNIRYATALQTCAGGRLFNVVVQDSQTATQLLERGRLRKRVTIIPLDKIYTRPISSQVLDLAKKIAPGKVELAINLIRFDESITKAMEFIFGNSLICEDPETAKKITFHPKIRARSITLQGDVYDPEGTLSGGSRNTSESLLVDIQKYNQIQKQIETIQADLNHVTEELQTQYATSQKTKTIQSDLNLSLHKLDLAKRNLDANPSSQIIARNEEILRDIGECENEIKTKQMSLKKCQEEVSTIEKDMKEYDSDKGSKLNELKKELKLLAKELEEQESESERKYDLFQNLELETEQLSSELDSNKTLLHNHLKSIESLKLENSDLEGKIRGVEDDLVTVQTELNEEKKRLMDIDDELNELETLIKKKQDEKKSSELELQKLVHDLNKYKSNTNNMEKIIEDLRQKHEFLEDFDLVRNIVKQNEGIDLDTYRERSKQLNEKFQELRKKVNPNIMNMIENVEKKEAALKTMIKTIEKDKMKIQETISKLNEYKRETLVKTWEKVTLDFGNIFADLLPNSFAKLVPCEGKDVTQGLEVKVKLGNIWKESLIELSGGQRSLIALSLIMALLQFRPAPMYILDEVDAALDLSHTQNIGHLIKTRFKGSQFIVVSLKEGMFANANRVFRTRFQDGTSVVSIM
notes: Smc2, SMC subunit of budding yeast (S. cerevisiae) condensin; only the head domain and proximal coiled coil (neck) are resolved in the maps; Subunit of the wild-type condensin tetramer and pentamer used for cryo-EM

Common to all, as to settings: both partners purified
In assay [1] the target is T1, Smc4-3xStrepII (budding yeast (S. cerevisiae), UniProt Q12267 1-1418).
T1 construct: Smc4, SMC subunit of budding yeast (S. cerevisiae) condensin; only the head domain, proximal coiled coil and residues 126-144 are resolved in the maps; The tag's end is read from the plasmid's name SMC4-3xStrepII; also called Scm4
T1 sequence: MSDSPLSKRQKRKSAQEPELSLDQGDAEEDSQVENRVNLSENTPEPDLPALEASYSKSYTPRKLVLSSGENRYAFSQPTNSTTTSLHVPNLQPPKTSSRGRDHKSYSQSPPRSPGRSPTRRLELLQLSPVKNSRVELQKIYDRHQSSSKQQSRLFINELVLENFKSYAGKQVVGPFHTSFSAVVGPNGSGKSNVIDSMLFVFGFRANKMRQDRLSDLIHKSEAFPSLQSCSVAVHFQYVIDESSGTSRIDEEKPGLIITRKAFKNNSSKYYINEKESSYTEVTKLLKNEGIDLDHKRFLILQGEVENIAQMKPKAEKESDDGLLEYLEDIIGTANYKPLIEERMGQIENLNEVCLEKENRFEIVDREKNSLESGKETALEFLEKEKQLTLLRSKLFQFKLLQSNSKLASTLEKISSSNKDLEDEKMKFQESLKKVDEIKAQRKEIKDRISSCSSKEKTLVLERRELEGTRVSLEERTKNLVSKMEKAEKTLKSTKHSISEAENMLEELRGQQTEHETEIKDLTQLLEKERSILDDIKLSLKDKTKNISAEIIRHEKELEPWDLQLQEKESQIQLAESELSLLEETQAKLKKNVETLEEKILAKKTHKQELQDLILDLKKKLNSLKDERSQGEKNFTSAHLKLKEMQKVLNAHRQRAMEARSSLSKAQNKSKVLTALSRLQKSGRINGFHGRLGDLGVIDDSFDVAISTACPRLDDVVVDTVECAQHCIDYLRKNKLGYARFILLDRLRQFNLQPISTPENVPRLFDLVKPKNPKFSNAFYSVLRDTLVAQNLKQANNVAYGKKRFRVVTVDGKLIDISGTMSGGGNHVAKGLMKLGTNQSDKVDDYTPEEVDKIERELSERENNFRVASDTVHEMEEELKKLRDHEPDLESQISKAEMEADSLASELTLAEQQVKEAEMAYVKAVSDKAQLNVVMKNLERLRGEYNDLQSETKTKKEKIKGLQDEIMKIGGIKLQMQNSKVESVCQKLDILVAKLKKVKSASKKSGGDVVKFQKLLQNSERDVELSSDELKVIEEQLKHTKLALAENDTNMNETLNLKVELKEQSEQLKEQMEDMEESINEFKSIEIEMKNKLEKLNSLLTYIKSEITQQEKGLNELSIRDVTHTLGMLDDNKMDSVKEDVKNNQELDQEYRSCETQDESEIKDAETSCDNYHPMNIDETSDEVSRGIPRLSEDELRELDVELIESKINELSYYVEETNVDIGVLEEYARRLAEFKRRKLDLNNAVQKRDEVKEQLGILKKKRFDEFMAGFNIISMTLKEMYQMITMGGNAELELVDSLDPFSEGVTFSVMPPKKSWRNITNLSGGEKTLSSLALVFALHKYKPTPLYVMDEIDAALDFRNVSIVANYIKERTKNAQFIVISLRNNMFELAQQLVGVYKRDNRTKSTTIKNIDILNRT
Description: cryo-EM structure; condensin pentamer (Smc2, Smc4, Brn1, Ycs4, Ycg1) with 80-bp dsDNA, 5 mM ADP, 1 mM BeSO4, 10 mM NaF in TNT buffer pH 7.5; separate maps of the clamped head module and of Ycg1-DNA.

In assay [2] the target is T1, Smc4-3xStrepII. The experiment in a line: cryo-EM structure; condensin tetramer (Smc2, Smc4, Brn1, Ycs4) with 80-bp dsDNA, 5 mM ADP, 1 mM BeSO4, 10 mM NaF in TNT buffer (30 mM Tris/HCl, 60 mM NaCl, 1 mM TCEP, 2 mM MgCl2, pH 7.5), 30 min at room temperature; clamped head module, Forms I and II.
In the assay “Ycs4” the target is B1. Description: cryo-EM structure; condensin pentamer (Smc2, Smc4, Brn1, Ycs4, Ycg1) with 80-bp dsDNA, 5 mM ADP, 1 mM BeSO4, 10 mM NaF in TNT buffer pH 7.5; separate maps of the clamped head module and of Ycg1-DNA.

Consider B1, for which, in the assay with Smc4-3xStrepII [1], the binding result was “binds”.

With B2, the binding result with Smc4-3xStrepII [2] and with Ycs4 was “binds” each time.

For the origin of these results see article PMC9168836, “Clamping of DNA shuts the condensin neck gate” (Proceedings of the National Academy of Sciences of the …, 2021).
